# From article PMC3906830 (The Febs Journal, 2013)
# T1: mature myostatin (human, UniProt O14793 267-375)
# T1 sequence (looked up): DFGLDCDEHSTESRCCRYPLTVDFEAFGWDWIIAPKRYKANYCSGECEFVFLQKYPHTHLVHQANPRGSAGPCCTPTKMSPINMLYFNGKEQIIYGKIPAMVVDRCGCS
# Biological target: T1, mature myostatin
# Experiment: SPR
binder,measurement,value
"N-terminal region of myostatin prodomain (PRO43-115) (domain or fragment, human, UniProt O14793 43-115, looked up) TWRQNTKSSRIEAIKIQILSKLRLETAPNISKDVIRQLLPKAPPLRELIDQYDVQRDDSSDGSLEDDDYHATT",Kd,3.7 µM
